What was measured:
Set-up in all cases: EC50 of β-arrestin-1 recruitment to the receptor (NanoBiT, HEK293T, agonist mode) (M (inferred, not given)) / EC50 of β-arrestin-1 recruitment to CCR3 (NanoBiT, HEK293T, agonist mode) (M (inferred, not given)) / EC50 of β-arrestin-1 recruitment to CCR5 (NanoBiT, HEK293T, agonist mode) (M (inferred, not given)): unit not given beside the values
[1] = biological target: WT CCR5 C-terminally fused to SmBiT (human) (UniProt P51681)
[2] = biological target: T1, human CCR10 on Ready-to-Assay Chem-1 cells (human) (UniProt P46092)
T1 sequence: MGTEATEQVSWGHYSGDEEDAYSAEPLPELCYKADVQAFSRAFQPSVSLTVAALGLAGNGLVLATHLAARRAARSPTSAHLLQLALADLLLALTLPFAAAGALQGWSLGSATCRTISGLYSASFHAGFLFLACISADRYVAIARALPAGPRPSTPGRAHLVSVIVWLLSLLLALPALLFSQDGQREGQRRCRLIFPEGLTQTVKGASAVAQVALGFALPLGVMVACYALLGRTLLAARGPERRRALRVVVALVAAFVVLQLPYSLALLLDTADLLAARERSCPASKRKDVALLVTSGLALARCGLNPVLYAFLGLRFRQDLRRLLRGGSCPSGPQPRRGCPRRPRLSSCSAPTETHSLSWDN

[3] = biological target: T2, WT CCR3 C-terminally fused to SmBiT (human) (UniProt P51677)
T2 sequence: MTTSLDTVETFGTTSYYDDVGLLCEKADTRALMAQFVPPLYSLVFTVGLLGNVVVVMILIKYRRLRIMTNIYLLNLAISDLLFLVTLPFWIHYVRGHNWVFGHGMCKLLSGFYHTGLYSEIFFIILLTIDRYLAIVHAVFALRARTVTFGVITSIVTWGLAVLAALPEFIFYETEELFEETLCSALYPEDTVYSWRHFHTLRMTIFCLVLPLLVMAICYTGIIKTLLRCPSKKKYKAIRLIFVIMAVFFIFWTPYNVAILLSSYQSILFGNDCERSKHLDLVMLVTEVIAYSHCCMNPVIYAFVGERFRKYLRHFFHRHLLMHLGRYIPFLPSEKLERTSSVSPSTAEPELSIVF

[4] = biological target: WT CXCR4 C-terminally fused to SmBiT (human) (UniProt P61073)
[5] = biological target: T3, human CCR3 on Ready-to-Assay Chem-1 cells (human) (UniProt P51677)
T3 sequence: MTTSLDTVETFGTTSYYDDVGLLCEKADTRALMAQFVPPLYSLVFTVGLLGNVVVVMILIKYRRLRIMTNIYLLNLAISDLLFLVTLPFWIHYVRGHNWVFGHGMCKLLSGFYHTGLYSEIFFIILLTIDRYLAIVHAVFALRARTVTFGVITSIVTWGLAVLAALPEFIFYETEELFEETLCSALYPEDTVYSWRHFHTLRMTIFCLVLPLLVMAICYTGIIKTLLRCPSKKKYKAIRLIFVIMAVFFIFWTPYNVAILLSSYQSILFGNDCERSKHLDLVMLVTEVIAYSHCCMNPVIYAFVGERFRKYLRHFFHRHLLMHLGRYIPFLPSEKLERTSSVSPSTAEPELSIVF

Q: “CCL5 (from UniProt P13501 24-91) (ligand)” was tested. Which β-arrestin-1 recruitment to the receptor (NanoBiT, HEK293T, agonist mode): mean peak activity, no single EC50 (fold untreated) [1] did it give?
A: The β-arrestin-1 recruitment to the receptor (NanoBiT, HEK293T, agonist mode): mean peak activity, no single EC50 (fold untreated) was 16.5.

Q: How did the EC50 of calcium flux in Chem-1 cells expressing the receptor (row labelled WT CCR3 in the sheet, taken as CCR10) [2] turn out when CCL28 ∆2 (∆SE) (ligand) was run?
A: The EC50 of calcium flux in Chem-1 cells expressing the receptor (row labelled WT CCR3 in the sheet, taken as CCR10) was 29 nM.

Q: How did the EC50 of β-arrestin-1 recruitment to CCR3 (NanoBiT, HEK293T, agonist mode) (M (inferred, not given)) [3] turn out when vMIP-II L13F (ligand) was run?
A: Its EC50 of β-arrestin-1 recruitment to CCR3 (NanoBiT, HEK293T, agonist mode) (M (inferred, not given)) is 5.34e-10.

Q: For “CCL3 (from UniProt P10147 24-92) (ligand; in M (unit assumed))”, which EC50 of β-arrestin-1 recruitment to the receptor (NanoBiT, HEK293T, agonist mode) (M (inferred, not given)) [1] is on record?
A: The EC50 of β-arrestin-1 recruitment to the receptor (NanoBiT, HEK293T, agonist mode) (M (inferred, not given)) was 4.12e-08.

Q: “CXCL12 (from UniProt P48061 22-93) (ligand)” was tested. Which EC50 of β-arrestin-1 recruitment to the receptor (NanoBiT, HEK293T, agonist mode) [4] did it give?
A: The EC50 of β-arrestin-1 recruitment to the receptor (NanoBiT, HEK293T, agonist mode) was 1.41 nM.

Q: How did the EC50 of calcium flux in Chem-1 cells expressing the receptor (M (inferred, not given)) [5] turn out when “CCL28 ∆1 (∆S) (ligand; in M (unit assumed))” was run?
A: The EC50 of calcium flux in Chem-1 cells expressing the receptor (M (inferred, not given)) was 1.72e-07.

Q: With “CCL28 ∆4 (∆SEAI) (ligand; in M (unit assumed))” as the molecule, how does the EC50 of calcium flux in Chem-1 cells expressing the receptor (M (inferred, not given)) [5] read?
A: The EC50 of calcium flux in Chem-1 cells expressing the receptor (M (inferred, not given)) was 2.79e-08.

Q: How did the EC50 of β-arrestin-1 recruitment to CCR5 (NanoBiT, HEK293T, agonist mode) (M (inferred, not given)) [1] turn out when vMIP-II R7I/K10T/L13F (ligand) was run?
A: The EC50 of β-arrestin-1 recruitment to CCR5 (NanoBiT, HEK293T, agonist mode) (M (inferred, not given)) was 1.08e-07.

Q: What about the EC50 of β-arrestin-1 recruitment to CCR3 (NanoBiT, HEK293T, agonist mode) (M (inferred, not given)) [3] of the same molecule?
A: The EC50 of β-arrestin-1 recruitment to CCR3 (NanoBiT, HEK293T, agonist mode) (M (inferred, not given)) was 1.11e-09.

Q: For CCL28 ∆1 (∆S) (ligand), which EC50 of calcium flux in Chem-1 cells expressing the receptor (row labelled WT CCR3 in the sheet, taken as CCR10) [2] is on record?
A: Its EC50 of calcium flux in Chem-1 cells expressing the receptor (row labelled WT CCR3 in the sheet, taken as CCR10) is 170 nM.

Q: For “CCL28 ∆3 (∆SEA) (ligand; in M (unit assumed))”, which EC50 of calcium flux in Chem-1 cells expressing the receptor (M (inferred, not given)) [5] is on record?
A: Its EC50 of calcium flux in Chem-1 cells expressing the receptor (M (inferred, not given)) is 5.22e-08.

Q: “CCL4 (from UniProt P13236 24-92) (ligand; in M (unit assumed))” was tested. Which EC50 of β-arrestin-1 recruitment to the receptor (NanoBiT, HEK293T, agonist mode) (M (inferred, not given)) [1] did it give?
A: The EC50 of β-arrestin-1 recruitment to the receptor (NanoBiT, HEK293T, agonist mode) (M (inferred, not given)) was 1.45e-07.

Q: CCL28 ∆3 (∆SEA) (ligand) was tested. Which EC50 of calcium flux in Chem-1 cells expressing the receptor (row labelled WT CCR3 in the sheet, taken as CCR10) [2] did it give?
A: The EC50 of calcium flux in Chem-1 cells expressing the receptor (row labelled WT CCR3 in the sheet, taken as CCR10) was 32 nM.

Q: How did the EC50 of calcium flux in Chem-1 cells expressing the receptor (row labelled WT CCR3 in the sheet, taken as CCR10) [2] turn out when CCL28 ∆4 (∆SEAI) (ligand) was run?
A: The EC50 of calcium flux in Chem-1 cells expressing the receptor (row labelled WT CCR3 in the sheet, taken as CCR10) was 390 nM.

Q: For vMIP-II K10T (ligand), which EC50 of β-arrestin-1 recruitment to CCR3 (NanoBiT, HEK293T, agonist mode) (M (inferred, not given)) [3] is on record?
A: Its EC50 of β-arrestin-1 recruitment to CCR3 (NanoBiT, HEK293T, agonist mode) (M (inferred, not given)) is 5.84e-10.

Q: For vMIP-II R7I (ligand), which EC50 of β-arrestin-1 recruitment to CCR3 (NanoBiT, HEK293T, agonist mode) (M (inferred, not given)) [3] is on record?
A: Its EC50 of β-arrestin-1 recruitment to CCR3 (NanoBiT, HEK293T, agonist mode) (M (inferred, not given)) is 3.79e-10.

Q: With “CCL28 ∆2 (∆SE) (ligand; in M (unit assumed))” as the molecule, how does the EC50 of calcium flux in Chem-1 cells expressing the receptor (M (inferred, not given)) [5] read?
A: Its EC50 of calcium flux in Chem-1 cells expressing the receptor (M (inferred, not given)) is 5.46e-08.

B1: WT CCL28 (ligand)
chain: SEAILPIASSCCTEVSHHISRRLLERVNMCRIQRADGDCDLAAVILHVKRRRICVSPHNHTVKQWMKVQAAKKNGKGNVCHRKKHHGKRNSNRAHQGKHETYGHKTPY
Q: What does the source list for B1?
A: EC50 of calcium flux in Chem-1 cells expressing the receptor (M (inferred, not given)) [5]: 1.42e-07; EC50 of calcium flux in Chem-1 cells expressing the receptor (row labelled WT CCR3 in the sheet, taken as CCR10) [2]: 230 nM

B2: viral macrophage inflammatory protein II (vMIP-II) (ligand)
chain: GDTLGASWHRPDKCCLGYQKRPLPQVLLSSWYPTSQLCSKPGVIFLTKRGRQVCADKSKDWVKKLMQQLPVTAR
Q: B2 was tested. Which EC50 of β-arrestin-1 recruitment to CCR3 (NanoBiT, HEK293T, agonist mode) (M (inferred, not given)) [3] did it give?
A: Its EC50 of β-arrestin-1 recruitment to CCR3 (NanoBiT, HEK293T, agonist mode) (M (inferred, not given)) is 1.35e-09.

— PMC12435897
